Data as given in patent US10801046B2, “Methods and materials for biosynthesizing multifunctional, multivariate molecules via carbon chain modification” (INVISTA NORTH AMERICA S.A.R.L., priority 2016, dated 2020).
Values belong to the molecule of their own block, whether it stands above or below them.

Experiments:
Format in all cases: biochemical
[1] = Aminotransferase activity, N7-acetyl-1,7-diaminoheptane to N7-acetyl-7-aminoheptanal, L-alanine formation by RP-HPLC; details: cell free extract, 10 mM substrate, 25° C., 4 h, against empty vector control, FIG. 51
Protocol: The activity of the N-terminal His-tagged aminotransferases of SEQ ID NOs: 116 (GenBank Accession No. AAQ59697.1), 119 (RefSeq Accession No. NP_417544.5), 125 (GenBank Accession No. AAGO8191.1), 126 (GenBank Accession No. AAY39893.1), 127 (GenBank Accession No. ABA81135.1), and 128 (GenBank Accession No. AEA39183.1) (see Example 6) for converting N7-acetyl-1,7-diaminoheptane to N7-acetyl-7-aminoheptanal was assayed using a buffer composed of a final concentration of 50 mM HEPES buffer (pH=7.5), 10 mM N7-acetyl-1,7-diaminoheptane, 10 mM pyruvate and 100 μM pyridoxyl 5′ phosphate. Each enzyme activity assay reaction was initiated by adding a cell free extract of the aminotransferases or the empty vector control to the assay buffer containing the N7-acetyl-1,7-diaminoheptane then incubated at 25° C. for 4 h, with shaking at 250 rpm. The formation of L-alanine was quantified via RP-HPLC.

[2] = Aminotransferase activity, heptane-1,7-diamine to 7-aminoheptanal, L-alanine formation by RP-HPLC; details: cell free extract, 10 mM substrate, 25° C., 4 h, against empty vector control, FIG. 50
Protocol: A sequence encoding an N-terminal His-tag was added to the Chromobacterium violaceum, Pseudomonas aeruginosa, Pseudomonas syringae, Rhodobacter sphaeroides, Escherichia coli, and Vibrio fluvialis genes encoding the aminotransferases of SEQ ID NOs: 116 (GenBank Accession No. AAQ59697.1), 119 (RefSeq Accession No. NP_417544.5), 125 (GenBank Accession No. AAGO8191.1), 126 (GenBank Accession No. AAY39893.1), 127 (GenBank Accession No. ABA81135.1), and 128 (GenBank Accession No. AEA39183.1), respectively such that N-terminal HIS tagged aminotransferases could be produced. The modified genes were cloned into a pET21a expression vector under the T7 promoter. Each expression vector was transformed into a BL21[DE3] E. coli host. Each resulting recombinant E. coli strain were cultivated at 37° C. in a 250 mL shake flask culture containing 50 mL LB media and antibiotic selection pressure, with shaking at 230 rpm. Each culture was induced overnight at 16° C. using 1 mM IPTG.
(§1) The pellet from each induced shake flask culture was harvested via centrifugation. Each pellet was resuspended and lysed via sonication. The cell debris was separated from the supernatant via centrifugation and the cell free extract was used immediately in enzyme activity assays.
(§2) Enzyme activity assays in the reverse direction (i.e., heptane-1,7-diamine to 7-aminoheptanal) were performed in a buffer composed of a final concentration of 50 mM HEPES buffer (pH=7.5), 10 mM heptane-1,7-diamine, 10 mM pyruvate, and 100 μM pyridoxyl 5′ phosphate. Each enzyme activity assay reaction was initiated by adding cell free extract of the aminotransferase gene product or the empty vector control to the assay buffer containing the heptane-1,7-diamine and then incubated at 25° C. for 4 h, with shaking at 250 rpm. The formation of L-alanine was quantified via RP-HPLC.

[3] = Aminotransferase activity, reverse direction (7-aminoheptanoate to 7-oxoheptanoate), L-alanine formation by RP-HPLC; details: cell free extract, 10 mM substrate, 25° C., 4 h, against empty vector control, FIG. 48
Protocol: (§3) A sequence encoding an N-terminal His-tag was added to the genes from Chromobacterium violaceum, Pseudomonas syringae, Rhodobacter sphaeroides, and Vibrio Fluvialis encoding the aminotransferases of SEQ ID NOs: 116 (GenBank Accession No. AAQ59697.1), 126 (GenBank Accession No. AAY39893.1), 127 (GenBank Accession No. ABA81135.1), and 128 (GenBank Accession No. AEA39183.1), respectively such that N-terminal HIS tagged aminotransferases could be produced. Each of the resulting modified genes was cloned into a pET21a expression vector under control of the T7 promoter and each expression vector was transformed into a BL21 [DE3] E. coli host. The resulting recombinant E. coli strains were cultivated at 37° C. in a 250 mL shake flask culture containing 50 mL LB media and antibiotic selection pressure, with shaking at 230 rpm. Each culture was induced overnight at 16° C. using 1 mM IPTG.
as §1
as §2, with “7-aminoheptanoate” for “heptane-1,7-diamine”, “7-oxoheptanoate)” for “7-aminoheptanal)”, “7-aminoheptanoate,” for “heptane-1,7-diamine,”, “pyruvate” for “pyruvate,”, “and” for “and then”, “L-alanine from pyruvate” for “L-alanine”

[4] = Aminotransferase activity, 7-aminoheptanol to 7-oxoheptanol, L-alanine formation by RP-HPLC; details: cell free extract, 10 mM substrate, 25° C., 4 h, against empty vector control, FIG. 52
Protocol: A nucleotide sequence encoding an N-terminal His-tag was added to the Chromobacterium violaceum, Pseudomonas syringae and Rhodobacter sphaeroides genes encoding the aminotransferases of SEQ ID NOs: 116 (GenBank Accession No. AAQ59697.1), 126 (GenBank Accession No. AAY39893.1), and 127 (GenBank Accession No. ABA81135.1), respectively such that N-terminal HIS tagged aminotransferases could be produced. The modified genes were cloned into a pET21a expression vector under the T7 promoter. Each expression vector was transformed into a BL21[DE3] E. coli host. Each resulting recombinant E. coli strain were cultivated at 37° C. in a 250 mL shake flask culture containing 50 mL LB media and antibiotic selection pressure, with shaking at 230 rpm. Each culture was induced overnight at 16° C. using 1 mM IPTG.
as §1
Enzyme activity assays in the reverse direction (i.e., 7-aminoheptanol to 7-oxoheptanol) were performed in a buffer composed of a final concentration of 50 mM HEPES buffer (pH=7.5), 10 mM 7-aminoheptanol, 10 mM pyruvate, and 100 μM pyridoxyl 5′ phosphate. […] The formation of L-alanine was quantified via RP-HPLC.

[5] = Aminotransferase activity, forward direction (7-oxoheptanoate to 7-aminoheptanoate), pyruvate formation by RP-HPLC; details: cell free extract, 10 mM substrate, 10 mM L-alanine, 25° C., 4 h, against empty vector control, FIG. 49
Protocol: as §3
The pellet from each induced shake flask culture was harvested via centrifugation. Each pellet was resuspended and lysed via sonication. […]
Enzyme activity in the forward direction (i.e., 7-oxoheptanoate to 7-aminoheptanoate) was confirmed for the aminotransferases of SEQ ID NO: 126 (GenBank Accession No. AAY39893.1), SEQ ID NO: 127 (GenBank Accession No. ABA81135.1), and SEQ ID NO: 128 (GenBank Accession No. AEA39183.1). […] The formation of pyruvate was quantified via RP-HPLC.

acceptance of 7-aminoheptanoate as substrate [3]: accepted 7-aminoheptanote as substrate
acceptance of 7-aminoheptanol as substrate, forming 7-oxoheptanol [4]: accepted 7-aminoheptanol as a substrate
B1: SEQ ID NO: 116: Chromobacterium violaceum aminotransferase (protein, listed as Chromobacterium violaceum)
chain: MQKQRTTSQWRELDAAHHLHPFTDTASLNQAGARVMTRGEGVYLWDSEGNKIIDGMAGLWCVNVGYGRKDFAEAARRQMEELPFYNTFFKTTHPAVVELSSLLAEVTPAGFDRVFYTNSGSESVDTMIRMVRRYWDVQGKPEKKTLIGRWNGYHGSTIGGASLGGMKYMHEQGDLPIPGMAHIEQPWWYKHGKDMTPDEFGVVAARWLEEKILEIGADKVAAFVGEPIQGAGGVIVPPATYWPEIERICRKYDVLLVADEVICGFGRTGEWFGHQHFGFQPDLFTAAKGLSSGYLPIGAVFVGKRVAEGLIAGGDFNHGFTYSGHPVCAAVAHANVAALRDEGIVQRVKDDIGPYMQKRWRETFSRFEHVDDVRGVGMVQAFTLVKNKAKRELFPDFGEIGTLCRDIFFRNNLIMRACGDHIVSAPPLVMTRAEVDEMLAVAERCLEEFEQTLKARGLA
modifications: Chromobacterium violaceum (strain ATCC 12472 / DSM 30191 / JCM 1249 / NBRC 12614 / NCIMB 9131 / NCTC 9757)
notes: Chromobacterium violaceum aminotransferase
acceptance of N7-acetyl-1,7-diaminoheptane as substrate, forming N7-acetyl-7-aminoheptanal [1]: accepted N7-acetyl-1,7-diaminoheptane as a substrate
acceptance of heptane-1,7-diamine as substrate, forming 7-aminoheptanal [2]: accepted heptane-1,7-diamine as substrate

acceptance of 7-aminoheptanoate as substrate [3]: accepted 7-aminoheptanote as substrate
acceptance of 7-oxoheptanoate as substrate, forming 7-aminoheptanoate [5]: accepted 7-oxoheptanoate as a substrate
acceptance of 7-aminoheptanol as substrate, forming 7-oxoheptanol [4]: accepted 7-aminoheptanol as a substrate
B2: SEQ ID NO: 126: Pseudomonas syringae aminotransferase (protein)
chain: MSANNPQTLEWQALSSEHHLAPFSDYKQLKEKGPRIITRAEGVYLWDSEGNKILDGMSGLWCVAIGYGREELADAASKQMRELPYYNLFFQTAHPPVLELAKAISDIAPEGMNHVFFTGSGSEGNDTMLRMVRHYWALKGQPNKKTIISRVNGYHGSTVAGASLGGMTYMHEQGDLPIPGVVHIPQPYWFGEGGDMTPDEFGIWAAEQLEKKILELGVENVGAFIAEPIQGAGGVIVPPDSYWPKIKEILSRYDILFAADEVICGFGRTSEWFGSDFYGLRPDMMTIAKGLTSGYVPMGGLIVRDEIVAVLNEGGDFNHGFTYSGHPVAAAVALENIRILREEKIVERVRSETAPYLQKRLRELSDHPLVGEVRGVGLLGAIELVKDKTTRERYTDKGAGMICRTFCFDNGLIMRAVGDTMIIAPPLVISFAQIDELVEKARTCLDLTLAVLQG
modifications: Pseudomonas syringae pv. syringae (strain B728a)
notes: Pseudomonas syringae aminotransferase
acceptance of N7-acetyl-1,7-diaminoheptane as substrate, forming N7-acetyl-7-aminoheptanal [1]: accepted N7-acetyl-1,7-diaminoheptane as a substrate
acceptance of heptane-1,7-diamine as substrate, forming 7-aminoheptanal [2]: accepted heptane-1,7-diamine as substrate
